Measurements from paper doi:10.1101/2025.11.11.685192 (bioRxiv, 2025).

Legend:
[1] = target: gp130 S187-Y190 deletion mutant, soluble extracellular domain (gp130 ΔSY ECD) (human); test: SEC + SEC-MALS + native gel or EMSA
[2] = target: gp130 S187-Y190 deletion mutant, soluble extracellular domain (gp130 ΔSY ECD) (human); test: cryo-EM structure
[3] = target: full-length gp130 ΔSY with an additional D1 deletion (gp130 ΔSYΔD1) (human) (UniProt P40189); test: cryo-EM structure
[4] = target: full-length gp130 ΔSY with additional D4-D6 deletion (gp130 ΔSYΔ(D4-D6)) (human) (UniProt P40189); test: cryo-EM structure
[5] = target: gp130 D215G mutant, soluble extracellular domain (gp130 D215G ECD) (human); test: cryo-EM structure
[6] = target: gp130 V252G mutant, soluble extracellular domain (gp130 V252G ECD) (human); test: cryo-EM structure
[7] = target: the molecule itself; test: native gel or EMSA
[8] = target: the molecule itself; test: cryo-EM structure

What does the source list for “gp130 S187-Y190 deletion mutant, soluble extracellular domain (gp130 ΔSY ECD) (domain or fragment)”?
stoichiometry N [1]: 2; stoichiometry N [2]: 2

Which stoichiometry N [3] does the source give for “full-length gp130 ΔSY with an additional D1 deletion (gp130 ΔSYΔD1) (from UniProt P40189 23-918) (receptor)” here?
Its stoichiometry N is 2.

For “full-length gp130 ΔSY with additional D4-D6 deletion (gp130 ΔSYΔ(D4-D6)) (from UniProt P40189 23-918) (receptor)”, which stoichiometry N [4] is on record?
The stoichiometry N was 2.

How did the stoichiometry N [5] turn out when “gp130 D215G mutant, soluble extracellular domain (gp130 D215G ECD) (domain or fragment)” was run?
Its stoichiometry N is 2.

With “gp130 V252G mutant, soluble extracellular domain (gp130 V252G ECD) (domain or fragment)” as the molecule, how does the stoichiometry N [6] read?
The stoichiometry N was 2.

B1: full-length gp130 S187-Y190 deletion mutant (gp130 ΔSY full-length) (receptor, human, UniProt P40189 23-918, looked up)
chain: ELLDPCGYISPESPVVQLHSNFTAVCVLKEKCMDYFHVNANYIVWKTNHFTIPKEQYTIINRTASSVTFTDIASLNIQLTCNILTFGQLEQNVYGITIISGLPPEKPKNLSCIVNEGKKMRCEWDGGRETHLETNFTLKSEWATHKFADCKAKRDTPTSCTVDYFVNIEVWVEAENALGKVTSDHINFDPVYKVKPNPPHNLSVINSEELSSILKLTWTNPSIKSVIILKYNIQYRTKDASTWSQIPPEDTASTRSSFTVQDLKPFTEYVFRIRCMKEDGKGYWSDWSEEASGITYEDRPSKAPSFWYKIDPSHTQGYRTVQLVWKTLPPFEANGKILDYEVTLTRWKSHLQNYTVNATKLTVNLTNDRYLATLTVRNLVGKSDAAVLTIPACDFQATHPVMDLKAFPKDNMLWVEWTTPRESVKKYILEWCVLSDKAPCITDWQQEDGTVHRTYLRGNLAESKCYLITVTPVYADGPGSPESIKAYLKQAPPSKGPTVRTKKVGKNEAVLEWDQLPVDVQNGFIRNYTIFYRTIIGNETAVNVDSSHTEYTLSSLTSDTLYMVRMAAYTDEGGKDGPEFTFTTPKFAQGEIEAIVVPVCLAFLLTTLLGVLFCFNKRDLIKKHIWPNVPDPSKSHIAQWSPHTPPRHNFNSKDQMYSDGNFTDVSVVEIEANDKKPFPEDLKSLDLFKKEKINTEGHSSGIGGSSCMSSSRPSISSSDENESSQNTSSTVQYSTVVHSGYRHQVPSVQVFSRSESTQPLLDSEERPEDLQLVDHVDGGDGILPRQQYFKQNCSQHESSPDISHFERSKQVSSVNEEDFVRLKQQISDHISQSCGSGQMKMFQEVSAADAFGPGTEGQVERFETVGMEAATDEGMPKSYLPQTVRQGGYMPQ
How did the “stoichiometry N” value [7] turn out when B1 was run?
The value was 2.

B2: full-length gp130 P216H mutant (receptor, human, UniProt P40189 23-918, looked up)
chain: ELLDPCGYISPESPVVQLHSNFTAVCVLKEKCMDYFHVNANYIVWKTNHFTIPKEQYTIINRTASSVTFTDIASLNIQLTCNILTFGQLEQNVYGITIISGLPPEKPKNLSCIVNEGKKMRCEWDGGRETHLETNFTLKSEWATHKFADCKAKRDTPTSCTVDYSTVYFVNIEVWVEAENALGKVTSDHINFDHVYKVKPNPPHNLSVINSEELSSILKLTWTNPSIKSVIILKYNIQYRTKDASTWSQIPPEDTASTRSSFTVQDLKPFTEYVFRIRCMKEDGKGYWSDWSEEASGITYEDRPSKAPSFWYKIDPSHTQGYRTVQLVWKTLPPFEANGKILDYEVTLTRWKSHLQNYTVNATKLTVNLTNDRYLATLTVRNLVGKSDAAVLTIPACDFQATHPVMDLKAFPKDNMLWVEWTTPRESVKKYILEWCVLSDKAPCITDWQQEDGTVHRTYLRGNLAESKCYLITVTPVYADGPGSPESIKAYLKQAPPSKGPTVRTKKVGKNEAVLEWDQLPVDVQNGFIRNYTIFYRTIIGNETAVNVDSSHTEYTLSSLTSDTLYMVRMAAYTDEGGKDGPEFTFTTPKFAQGEIEAIVVPVCLAFLLTTLLGVLFCFNKRDLIKKHIWPNVPDPSKSHIAQWSPHTPPRHNFNSKDQMYSDGNFTDVSVVEIEANDKKPFPEDLKSLDLFKKEKINTEGHSSGIGGSSCMSSSRPSISSSDENESSQNTSSTVQYSTVVHSGYRHQVPSVQVFSRSESTQPLLDSEERPEDLQLVDHVDGGDGILPRQQYFKQNCSQHESSPDISHFERSKQVSSVNEEDFVRLKQQISDHISQSCGSGQMKMFQEVSAADAFGPGTEGQVERFETVGMEAATDEGMPKSYLPQTVRQGGYMPQ
How did the “stoichiometry N” value [8] turn out when B2 was run?
The value was 2.

B3: full-length gp130 E195-V196 deletion mutant (gp130 ΔEV) (receptor, human, UniProt P40189 23-918, looked up)
chain: ELLDPCGYISPESPVVQLHSNFTAVCVLKEKCMDYFHVNANYIVWKTNHFTIPKEQYTIINRTASSVTFTDIASLNIQLTCNILTFGQLEQNVYGITIISGLPPEKPKNLSCIVNEGKKMRCEWDGGRETHLETNFTLKSEWATHKFADCKAKRDTPTSCTVDYSTVYFVNIWVEAENALGKVTSDHINFDPVYKVKPNPPHNLSVINSEELSSILKLTWTNPSIKSVIILKYNIQYRTKDASTWSQIPPEDTASTRSSFTVQDLKPFTEYVFRIRCMKEDGKGYWSDWSEEASGITYEDRPSKAPSFWYKIDPSHTQGYRTVQLVWKTLPPFEANGKILDYEVTLTRWKSHLQNYTVNATKLTVNLTNDRYLATLTVRNLVGKSDAAVLTIPACDFQATHPVMDLKAFPKDNMLWVEWTTPRESVKKYILEWCVLSDKAPCITDWQQEDGTVHRTYLRGNLAESKCYLITVTPVYADGPGSPESIKAYLKQAPPSKGPTVRTKKVGKNEAVLEWDQLPVDVQNGFIRNYTIFYRTIIGNETAVNVDSSHTEYTLSSLTSDTLYMVRMAAYTDEGGKDGPEFTFTTPKFAQGEIEAIVVPVCLAFLLTTLLGVLFCFNKRDLIKKHIWPNVPDPSKSHIAQWSPHTPPRHNFNSKDQMYSDGNFTDVSVVEIEANDKKPFPEDLKSLDLFKKEKINTEGHSSGIGGSSCMSSSRPSISSSDENESSQNTSSTVQYSTVVHSGYRHQVPSVQVFSRSESTQPLLDSEERPEDLQLVDHVDGGDGILPRQQYFKQNCSQHESSPDISHFERSKQVSSVNEEDFVRLKQQISDHISQSCGSGQMKMFQEVSAADAFGPGTEGQVERFETVGMEAATDEGMPKSYLPQTVRQGGYMPQ
For B3, which “stoichiometry N” value [8] is on record?
The value was 2.

B4: full-length gp130 K173-D177 deletion mutant (gp130 ΔKD) (receptor, human, UniProt P40189 23-918, looked up)
chain: ELLDPCGYISPESPVVQLHSNFTAVCVLKEKCMDYFHVNANYIVWKTNHFTIPKEQYTIINRTASSVTFTDIASLNIQLTCNILTFGQLEQNVYGITIISGLPPEKPKNLSCIVNEGKKMRCEWDGGRETHLETNFTLKSEWATHKFADCTPTSCTVDYSTVYFVNIEVWVEAENALGKVTSDHINFDPVYKVKPNPPHNLSVINSEELSSILKLTWTNPSIKSVIILKYNIQYRTKDASTWSQIPPEDTASTRSSFTVQDLKPFTEYVFRIRCMKEDGKGYWSDWSEEASGITYEDRPSKAPSFWYKIDPSHTQGYRTVQLVWKTLPPFEANGKILDYEVTLTRWKSHLQNYTVNATKLTVNLTNDRYLATLTVRNLVGKSDAAVLTIPACDFQATHPVMDLKAFPKDNMLWVEWTTPRESVKKYILEWCVLSDKAPCITDWQQEDGTVHRTYLRGNLAESKCYLITVTPVYADGPGSPESIKAYLKQAPPSKGPTVRTKKVGKNEAVLEWDQLPVDVQNGFIRNYTIFYRTIIGNETAVNVDSSHTEYTLSSLTSDTLYMVRMAAYTDEGGKDGPEFTFTTPKFAQGEIEAIVVPVCLAFLLTTLLGVLFCFNKRDLIKKHIWPNVPDPSKSHIAQWSPHTPPRHNFNSKDQMYSDGNFTDVSVVEIEANDKKPFPEDLKSLDLFKKEKINTEGHSSGIGGSSCMSSSRPSISSSDENESSQNTSSTVQYSTVVHSGYRHQVPSVQVFSRSESTQPLLDSEERPEDLQLVDHVDGGDGILPRQQYFKQNCSQHESSPDISHFERSKQVSSVNEEDFVRLKQQISDHISQSCGSGQMKMFQEVSAADAFGPGTEGQVERFETVGMEAATDEGMPKSYLPQTVRQGGYMPQ
How did the “stoichiometry N” value [8] turn out when B4 was run?
Its value is 2.

B5: full-length gp130 A418-F421 deletion mutant (gp130 ΔAF) (receptor, human, UniProt P40189 23-918, looked up)
chain: ELLDPCGYISPESPVVQLHSNFTAVCVLKEKCMDYFHVNANYIVWKTNHFTIPKEQYTIINRTASSVTFTDIASLNIQLTCNILTFGQLEQNVYGITIISGLPPEKPKNLSCIVNEGKKMRCEWDGGRETHLETNFTLKSEWATHKFADCKAKRDTPTSCTVDYSTVYFVNIEVWVEAENALGKVTSDHINFDPVYKVKPNPPHNLSVINSEELSSILKLTWTNPSIKSVIILKYNIQYRTKDASTWSQIPPEDTASTRSSFTVQDLKPFTEYVFRIRCMKEDGKGYWSDWSEEASGITYEDRPSKAPSFWYKIDPSHTQGYRTVQLVWKTLPPFEANGKILDYEVTLTRWKSHLQNYTVNATKLTVNLTNDRYLATLTVRNLVGKSDAAVLTIPQATHPVMDLKAFPKDNMLWVEWTTPRESVKKYILEWCVLSDKAPCITDWQQEDGTVHRTYLRGNLAESKCYLITVTPVYADGPGSPESIKAYLKQAPPSKGPTVRTKKVGKNEAVLEWDQLPVDVQNGFIRNYTIFYRTIIGNETAVNVDSSHTEYTLSSLTSDTLYMVRMAAYTDEGGKDGPEFTFTTPKFAQGEIEAIVVPVCLAFLLTTLLGVLFCFNKRDLIKKHIWPNVPDPSKSHIAQWSPHTPPRHNFNSKDQMYSDGNFTDVSVVEIEANDKKPFPEDLKSLDLFKKEKINTEGHSSGIGGSSCMSSSRPSISSSDENESSQNTSSTVQYSTVVHSGYRHQVPSVQVFSRSESTQPLLDSEERPEDLQLVDHVDGGDGILPRQQYFKQNCSQHESSPDISHFERSKQVSSVNEEDFVRLKQQISDHISQSCGSGQMKMFQEVSAADAFGPGTEGQVERFETVGMEAATDEGMPKSYLPQTVRQGGYMPQ
B5 was tested. Which “stoichiometry N” value [8] did it give?
The value was 2.
